Results published in the supplement of paper PMC12764529.
± gives the half width of the 95% confidence interval.

Tests used:
[1] = folding stability dG unfold from trypsin proteolysis; higher = more stable
Summary of the method: (§1)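 Designed mini-proteins (under 80 residues, no cysteine) in a PA-tagged cDNA display construct were digested with trypsin and chymotrypsin. Each protease was used at 11 concentrations (threefold dilutions) plus a no-protease condition, followed by sequencing. K50 was inferred by Bayesian fitting of sequencing counts, and unfolding free energy was derived against a sequence-predicted unfolded-state K50 and a shared folded-state K50, per protease or combined. Only designs with AlphaFold2 dimer inter-PAE above 15 were kept.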

[2] = folding stability dG unfold from chymotrypsin proteolysis; higher = more stable
Summary of the method: as §1

[3] = folding stability dG unfold (combined trypsin and chymotrypsin); higher = more stable
Summary of the method: as §1

Sequence | folding stability dG unfold [1] | folding stability dG unfold [2] | folding stability dG unfold [3]
SAEKTLTIPITLENGATLTITVYEDRIEATLEVDGLTGTGYTLPDGTVVLNLRAPGNKPIASPVFTLDLSAG [r14_213_TrMRF] | 1.73 ± 0.058 kcal/mol | 2.48 ± 0.06 kcal/mol | 2.31 ± 0.12 kcal/mol
SAGGSAGGSMPTSSSSSLSSEAEVEALIEELKKKGAKEFTVDPGPGALTLTITYDDSTLTISSSAGGSAGGS [r12_846_JUSTAS] | 0.838 ± 0.033 kcal/mol | 1.38 ± 0.057 kcal/mol | 1.12 ± 0.11 kcal/mol
SMKTITIPADTLSPEEIEALLKELGFDPEKIKISTEGDKLVVTVPDMIVFLTPPPPVPTVPPTNPERLAALS [r1_57_JUSTAS] | 0.643 ± 0.036 kcal/mol | -0.141 ± 0.36 kcal/mol | 0.31 ± 0.15 kcal/mol
SAGGSAGGSAGGPKVEVLEVFEFGDLRFVKVYDPETGKVTLLAVTRSDGSKVTFFNPEESAGGSAGGSAGGS [r10_655_TrMRF] | 1.42 ± 0.056 kcal/mol | 2.58 ± 0.053 kcal/mol | 2.23 ± 0.15 kcal/mol
SAGGSAGGSAGGSKTYRIYFKDNNKVITVKSKEDLKAALEKAGYTISEEDLDKIVKIEPSAGGSAGGSAGGS [r4_104_TrROS_Hall] | 1.69 ± 0.046 kcal/mol | 1.81 ± 0.07 kcal/mol | 1.8 ± 0.087 kcal/mol
SAGGSAGGSAGGSTRDFLVKDPSNGQWYKVTATTDPAGAVTITFPETGEVVPLEGLVVSPSAGGSAGGSAGG [r11_301_JUSTAS] | 1.47 ± 0.046 kcal/mol | 1.338 ± 0.012 kcal/mol | 1.43 ± 0.042 kcal/mol
SAGGSAGGMVIEFPKEKVEEVKKELLDAGKPDWVIVTDPNDPDIIKIMPKSLAEEKGWKYTPLLSAGGSAGG [r6_710_JUSTAS] | 2.33 ± 0.073 kcal/mol | 2.06 ± 0.043 kcal/mol | 2.09 ± 0.16 kcal/mol
SWWYIVTIKIWKPGNGEPKGPIMLFVRSPEEAEEIAEEPAPEHGYDVEVNVKRIPPDDMDDPEQMKEMMNSA [r9_864_TrROS] | 1.82 ± 0.035 kcal/mol | 2.56 ± 0.13 kcal/mol | 2.07 ± 0.37 kcal/mol
SANGEMTMMFEFEIFFPGLGYRGKIYVMMRIEPTPNQIRIDLMIMIEIEPIPPPPPKVPPEQNPEDADDSAG [r14_435_TrROS] | 3.82 ± 0.21 kcal/mol | 5.18 ± 0.2 kcal/mol | 5.23 ± 0.48 kcal/mol
SAGGSAMVDKTMTEEEARAFAEASGDPRVTVEPVENPNNDPNAPKKWRITVDGSGTPGSTILFTSPSAGGSA [r15_428_JUSTAS] | -0.398 ± 0.12 kcal/mol | -0.928 ± 0.28 kcal/mol | -0.55 ± 0.089 kcal/mol
SAPNYVLVIKIKSTNTPYYIPVPEDVEIVVKKNKNGEITAVVKVKDPETGEYFVITFSGDAKIDKIEPVPSA [r9_467_TrMRF] | 2.21 ± 0.1 kcal/mol | 2.93 ± 0.082 kcal/mol | 2.63 ± 0.19 kcal/mol
SAMIVVEIEESRSPTSPERTVTVTVKKPDGTVVKTIPITVSGANPSATPEEVRALAEPIVEELVKKGLLSAG [r14_120_JUSTAS] | 1.44 ± 0.026 kcal/mol | 1.47 ± 0.045 kcal/mol | 1.55 ± 0.13 kcal/mol
SAGGSVVTTTFTYPDGTVVTTTTTPRPETLLTTTTTTTFYPDKPVKVAPGKEVVTTVTTTTTTVTPAASAGG [r13_780_JUSTAS] | 0.378 ± 0.03 kcal/mol | 0.574 ± 0.12 kcal/mol | 0.54 ± 0.069 kcal/mol
SAMKVTIEPLEDGSTVITLDDGTEITFSAPGSGAPILAKVTPLPNTGVVRVDIYHPEGGKLLAPLVVPLSAG [r14_975_TrMRF] | 0.657 ± 0.034 kcal/mol | 0.579 ± 0.094 kcal/mol | 0.734 ± 0.053 kcal/mol
SAGGSAGGSLDPGEEVKIEITDWHPPNGYYRIKIEFPNGPPIDIWMPPDDPQQMKEQAKDLIKSAGGSAGGS [r20_167_TrROS] | -0.725 ± 0.46 kcal/mol | 0.372 ± 0.36 kcal/mol | 0.107 ± 0.23 kcal/mol
SAGGSALDPDDLEKVTIEFMFYNPNGNLLYEMTLEIYPDDGVIKMEHKQRRPGEPQKVTMEFPFDPSAGGSA [r15_278_TrROS] | 1.63 ± 0.29 kcal/mol | 1.67 ± 0.18 kcal/mol | 1.73 ± 0.28 kcal/mol
SAMEIVIEFESPEEAEKAIKEYVEKKGLKAVEIKMEFEPKWVEEKTPTGVKVTKEKYVAKVTVVTSKELSAG [r14_773_JUSTAS] | 0.457 ± 0.21 kcal/mol | 2.03 ± 0.095 kcal/mol | 1.28 ± 0.32 kcal/mol
SAGGSAGGSAGGSLPLILRLAEENGFSVSAVPIPETGTYKAVVTLPDGKPITIELPLTLSAGGSAGGSAGGS [r4_121_TrMRF] | 0.295 ± 0.12 kcal/mol | 1.04 ± 0.33 kcal/mol | 0.804 ± 0.2 kcal/mol
SAGGSAGGSAYELVIVGTPELALKLAKEFAEKNPESVANLKIEKITAALPVPFLSPDGIPESAGGSAGGSAG [r3_89_TrMRF] | 0.0947 ± 0.1 kcal/mol | 0.207 ± 0.39 kcal/mol | 0.0822 ± 0.24 kcal/mol
SAGGSAGGVISEEEIEAKAEEAKAEAIAAGLESKEVTITSPSGKVYKITVDVNSITIEKSPAAGSAGGSAGG [r6_270_JUSTAS] | 0.879 ± 0.088 kcal/mol | 0.743 ± 0.088 kcal/mol | 0.832 ± 0.16 kcal/mol
SAGGSAGGGMKFVKVTLEYAGGEVREYLFTTSSSDSTVEVVIEDLPPEKGARITEITEYPASLLSAGGSAGG [r6_530_JUSTAS] | 0.746 ± 0.068 kcal/mol | 1.17 ± 0.16 kcal/mol | 0.978 ± 0.21 kcal/mol
